Test results reported in the emibetuzumab library of Makowski et al. (2022).

B1: VH:VL chains; a variant is named by its letters at X, in order (parent)
chain 1: QVQLVQSGAEVKKPGASVKVSCKASGYTFTDYXMHWVRQAPGQGLEWMGXVNPNXXXTTYNQKFEGRVTMTTDTSTSTAYMELRSLRSDDTAVYYCARXNXLDXWGQGTTVTVSS
chain 2: DIQMTQSPSSLSASVGDRVTITCSVSSSVSSIYLHWYQQKPGKAPKLLIYSTSNLASGVPSRFSGSGSGTDFTLTISSLQPEDFATYYCQVYSGYPLTFGGGTKVEIK

Variants of: B1
Test: yeast display scFab, FACS + sequencing
How it was run: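 Non-specific binding was called from deep sequencing of sorted yeast cells displaying a heavy-chain CDR mutant scFab library. Cells labelled with anti-Myc and biotinylated ovalbumin (260 μg/mL in PBSB, 3 h, room temperature) or soluble membrane proteins (130 μg/mL, 20 min on ice) were FACS-sorted, collecting the top 25% and bottom 10% of binders from two replicates. A sequence was positive when present in ≥3 of 4 pooled positive samples and absent from all negatives, and negative under the converse rule.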

Variant	non-specific binding call
YRARGSVF	binds
YRARGSVS	binds
YRARGSWD	binds
YRARGSWS	binds
ARARGSWV	binds
FRARGSWV	binds
YRARGVGA	binds
YRARGVGV	binds
VRARGVVA	binds
YRARGVVV	binds
YRARGYGV	binds
YRARGYVY	binds
FRARSAAA	binds
YRARSAAD	binds
FRARSAAV	binds
YRARSAAV	binds
YRARSAGA	binds
YRARSAGF	binds
YRARSAGF chain 1 G108D	binds
YRARSAGV	binds
YRARSAGY	binds
YRARSALD	binds
YRARSASA	binds
YRARSASV	binds
YRARSAVA	binds

Variant	non-specific binding call
YRARSAVD	binds
YRARSAVV	binds
YRARSAVY	binds
YRARSAWA	binds
YRARSAWS	binds
YRARSAWV	binds
YRARSDVF	no binding
YRARSFGD	binds
YRARSFGS	binds
YRARSSAA	binds
YRARSSAD	binds
YRARSSGA	binds
FRARSSGF	binds
YRARSSGV	binds
YRARSSLA	binds
YRARSSLY	binds
YRARSSSD	binds
YRARSSVA	binds
YRARSSVV	binds
YRARSSWD	binds
YRARSSWS	binds
DRARTFVA	binds
SRATAYSD	binds
YRATDFVV	binds
VRATGSVY	binds

Variant	non-specific binding call
VRATGYWA	binds
FRATSAVD	binds
SREAAAVY	no binding
SREAADAV	no binding
SREAADGV	no binding
VREAADSF	no binding
SREAADWA	no binding
SREAADWV	no binding
SREAASGV	no binding
SREAASLA	no binding
DREEGAGA	no binding
DREEGAGS	no binding
DREEGAGV	no binding
DREEGAVA	no binding
DREEGAVV	no binding
DREEGAVY	no binding
DREEGDAV	no binding
VREEGDGA	no binding
DREEGDGS	no binding
DREEGDGV	no binding
YREEGDGV	no binding
YREEGDVF	no binding
DREEGDVV	no binding
DREEGDWA	no binding
DREEGDWV	no binding

Variant	non-specific binding call
DREEGFSV	no binding
SREEGFSV	no binding
AREEGFSV	no binding
FREEGFSV	no binding
DREEGSGD	no binding
DREEGSSA	no binding
DREEGSSY	no binding
DREEGSWV	no binding
DREEGVGV	no binding
YREETSGA	binds
VREGAAAV	no binding
FREGASWD	binds
YREGDAAD	no binding
AREGDAGD	no binding
YREGDASD	no binding
DREGDAVA	no binding
DREGDDAV	no binding
VREGDDAV	no binding
AREGDDVA	no binding
YREGDFVD	binds
VREGDYLS	binds
DREGDYLY	no binding
YREGGAGV	binds
FREGGALD	binds
FREGGAVS	binds

Variant	non-specific binding call
YREGGDGA	no binding
SREGGFAA	binds
YREGGFAA	binds
YREGGFVA	binds
FREGGSGD	binds
YREGGSGV	binds
YREGGSLD	binds
YREGGSVD	no binding
DREGGVSD	binds
SREGGVVV	binds
FREGSASV	binds
FREGSAVA	binds
VREGSSAA	binds
YREKAAWA	binds
YREKDSAD	no binding
FREKDSAD	no binding
YREKGAAA	binds
YREKGAGD	binds
FREKGDLA	no binding
AREKGSAA	binds
YREKGSAA	binds
YREKGSLD	binds
YREKGSSA	binds
YREKGSSV	binds
YRERAAGY	binds

Variant	non-specific binding call
YRERDSAD	binds
FRERGAAA	binds
YRERGAAA	binds
YRERGAAD	binds
YRERGAAF	binds
YRERGAAV	binds
FRERGAGD	binds
YRERGAGF	binds
VRERGAGS	binds
FRERGAGY	binds
YRERGALA	binds
FRERGALA	binds
YRERGALS	binds
VRERGASD	binds
YRERGAVV	binds
FRERGAVV	binds
VRERGAWD	binds
YRERGAWV	binds
VRERGDAA	no binding
VRERGDAS	binds
FRERGDGA	binds
VRERGDGS	no binding
VRERGDGV	no binding
ARERGDGY	no binding
DRERGDGY	no binding

Variant	non-specific binding call
VRERGDLV	no binding
VRERGDWF	no binding
VRERGDWV	no binding
YRERGSAA	binds
YRERGSAD	binds
VRERGSAD	binds
FRERGSAD	binds
FRERGSAV	binds
YRERGSAV	binds
VRERGSAV	binds
VRERGSLY	binds
VRERGSSF	no binding
YRERGSSF	binds
VRERGSWD	binds
FRERGSWV	binds
YRERGSWV	binds
VRERGSWV	binds
VRERGVGV	binds
FRERGYGA	binds
FRERNAAA	binds
YRERNAAA	binds
YRERSDVS	binds
YRERSSLD	binds
YRERSSVA	binds
VRERSSVD	binds

Variant	non-specific binding call
YRERTAAV	binds
FRETDFGA	binds
YRGAAASS	no binding
YRGAASAV	binds
YRGAASSD	binds
FRGADFGD	binds
YRGADFGF	binds
FRGADSGF chain 1 R98K	binds
YRGAGAAA	binds
YRGAGAAD	binds
YRGAGAGA	binds
YRGAGAGS	binds
YRGAGAGV	binds
YRGAGALV	binds
YRGAGAVS	binds
YRGAGAVY	binds
YRGAGAWA	binds
YRGAGAWS	binds
VRGAGAWV	binds
YRGAGAWV	binds
YRGAGFVD	binds
YRGAGSAD	binds
YRGAGSGD	binds
YRGAGSGS	binds
YRGAGSGV	binds

Variant	non-specific binding call
YRGAGSGY	binds
YRGAGSLD	binds
FRGAGSVA	binds
FRGAGSVD	binds
YRGAGSVD	binds
VRGAGSWV	binds
YRGAGYAA	binds
YRGAGYGS	binds
ARGAGYGS	binds
SRGANAWD	binds
YRGANSGA	binds
YRGANSVF	binds
YRGANVVY	binds
YRGASAAA	binds
YRGASSGF	binds
YRGASSWV	binds
YRGEAFLY	binds
YRGEASVD	binds
FRGEAVVY	binds
FRGEGAAD	binds
DRGEGAGD chain 1 G42D	no binding
FRGEGALV	binds
YRGEGASD	binds
FRGEGAVS	binds
YRGEGAVS	binds

Variant	non-specific binding call
YRGEGAWV	binds
YRGEGDAA	no binding
YRGEGDAV	no binding
FRGEGFSV	binds
YRGEGSAS	binds
FRGEGSGV	binds
ARGEGSGV	no binding
FRGEGSVS	binds
VRGEGSWD	binds
FRGESAAA	binds
FRGESAGA	binds
FRGESAGS	binds
FRGESAGV	binds
YRGESAVD	binds
YRGESAWV	binds
FRGESSAD	binds
FRGESSGA	binds
YRGESSGF	binds
FRGESSWD	binds
YRGGAAAA	binds
SRGGAAWA	binds
YRGGAAWD	binds
YRGGAAWY	binds
